Common to all, as to assay: ITC
Background: In ITC the heat of successive injections is recorded.

Test [1] concerns the target human U2A′ protein, truncated form that included the first 180 amino acids (LRR domain) (human) (UniProt P09661).
The target is the same in test [2]. The source holds these as a separate data set.
For test [3] the target is unchanged. The source holds these as a separate data set.

Consider one substance from article PMC4067145.

Where two headings read alike, the source gives them in different places.

human U2A′ protein, truncated form that included the first 180 amino acids (LRR domain) (human), sequence (P09661 1-180): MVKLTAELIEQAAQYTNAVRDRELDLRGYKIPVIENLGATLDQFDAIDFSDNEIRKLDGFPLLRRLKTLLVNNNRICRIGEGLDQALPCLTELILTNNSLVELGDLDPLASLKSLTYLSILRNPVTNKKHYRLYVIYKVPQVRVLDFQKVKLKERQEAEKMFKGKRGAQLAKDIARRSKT
full-length human U1A protein, sequence (P09012 whole entry): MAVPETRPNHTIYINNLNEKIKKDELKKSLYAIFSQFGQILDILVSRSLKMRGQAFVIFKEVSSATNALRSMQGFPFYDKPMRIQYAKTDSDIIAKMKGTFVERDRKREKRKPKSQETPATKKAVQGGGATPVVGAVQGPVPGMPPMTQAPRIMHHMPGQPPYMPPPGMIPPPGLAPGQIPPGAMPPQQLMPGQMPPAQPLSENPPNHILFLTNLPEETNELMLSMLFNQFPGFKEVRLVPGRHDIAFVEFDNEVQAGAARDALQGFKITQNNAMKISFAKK

For the substance “full-length human U1A protein (from UniProt P09012 1-282) (natural protein)”, the values for the dH in test [1], in test [2] and in test [3] were 2 kcal/mol, 2.9 kcal/mol and 2.8 kcal/mol, respectively.
